According to the RNAGym collection of RNA variant scans (doi:10.1073/pnas.2313332121):
Variants at the floor of the assay were thinned out.

B1: TPR 5TU (parent)
chain: GGAUCUUCUCGAUCUAACAAAAAAGACAAAUCUGCCACAAAGCUUGAGAGCAUCUUCGGAUGCAGAGGCGGCAGCCUUCGGUGGCGCGAUAGCGCCAACGUUCUCAACUAUGACACGCAAAACGCGUGCUCCGUUGAAUGGAGUUUAUCAUG

Variants of: B1
Experiment: polymerase ribozyme fitness, log enrichment relative to wild type (log ratio); higher = more active; in vitro selection for triplet polymerase activity
Procedure, shortened: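 To select mutant libraries of each subunit of a heterodimeric triplet polymerase ribozyme, built by PCR and transcribed, each was annealed with a biotinylated primer, partner subunit and triplets, then incubated frozen at −7 °C. Extended constructs were gel-excised, captured on streptavidin beads and amplified by RT-PCR, in one round carried out in triplicate. Illumina sequencing of input and output libraries kept genotypes with ≥10 input reads and ≥1 read per output. Fitness is the base-2 logarithm of genotype enrichment relative to wild-type enrichment, from inverse-variance-weighted replicate averages.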

Row | Variant | polymerase ribozyme fitness (log ratio)
1 | A19G C38A U102C C108U | ≤ -4.2
2 | A21C A52G C125A A142U | ≤ -4.2
3 | A19U G58U C87U A119U | -2.02
4 | A19U G94A A121U C125G | -0.351
5 | A20C U53A U56G C85A A119C | -4
6 | A20U A22C C87A G88C A98U A107G | ≤ -4.2
7 | A20U C54G G70C C79G G92U A107U | ≤ -4.2
8 | A19G A49U U55A C96U | -1.84
9 | A19G U45G U90G G124A | ≤ -4.2
10 | A20G G86U A91C U146G | ≤ -4.2
11 | A19U A20U C85U C118U | -2.63
12 | A19G C35U C87U C95A | -2.49
13 | A20U A73G C85A C93A G141C | ≤ -4.2
14 | A20C G92U C125A | -0.863
15 | A20U A30U A39G C75A | ≤ -4.2
16 | A20G | -0.287
17 | A20U | -1.18
18 | A20C | -0.413
19 | A21C C57U C87G G126C A137C | ≤ -4.2
20 | A19U C51U A91U G94A G133A A137C | ≤ -4.2
21 | A19G A40C G48U U61A G74C C87A G126U | ≤ -4.2
22 | A21C A91C U127C | ≤ -4.2
23 | A21C C35A C87U | -3.56
24 | A20G G71A C96A | ≤ -4.2

Row | Variant | polymerase ribozyme fitness (log ratio)
25 | A19U U55G G88U U104G | ≤ -4.2
26 | A19U G68C C85U | ≤ -4.2
27 | A20C G86C C87U G88A C95G | ≤ -4.2
28 | A20U G34C C96G | ≤ -4.2
29 | A20U U31C C116U A121U A150C | -3.57
30 | A21C G84U | -1.28
31 | A20C G48U G100C C116A | ≤ -4.2
32 | A20U G94A G112A | -3.86
33 | A21C G58A C93U U102G C131G | ≤ -4.2
34 | A20G G126A G136A | 0.15
35 | A21C C54A C95U C114G G136U | ≤ -4.2
36 | A19U C93U | -0.795
37 | A19U C93A | -2.7
38 | A19G A20U U55A C87A C131U U148A | ≤ -4.2
39 | A20C G83C | -1.3
40 | A19U G80U | -0.442
41 | A20U G46U A98G C99U | -3.31
42 | A21C A47C C96A G133C | -1.54
43 | A21C G50C | -1.92
44 | A20U G50U C76A G92C A110G C118G A137U | ≤ -4.2
45 | A20U A26C C32U A64C C75G U78G C123U U134C U145C | ≤ -4.2
46 | A21C C57A C93G C99G C118U U139A U144A A150C | ≤ -4.2
47 | A20U G141C | -1.4
48 | A21C A89U U104A | -0.361

Row | Variant | polymerase ribozyme fitness (log ratio)
49 | A21C A30U U33G A60U C85A | ≤ -4.2
50 | A21C A41C C51U C85A | -3.05
51 | A19G A52G G58U A64G U139A | ≤ -4.2
52 | A20U C43U C96U C114U G141C | ≤ -4.2
53 | A19U A20C U109G | -2.07
54 | A21C G94A U148A | -3.72
55 | A20C G50A C63A C85U G117U | -1.09
56 | A20U C87U G88C U101A U146G | ≤ -4.2
57 | A20U G62C G71A G117U U135G | ≤ -4.2
58 | A19U A39U U56A | -2.83
59 | A19G C93A A113U G141C | ≤ -4.2
60 | A21C C57G C75A A98G A107U C123U A142U G143C | ≤ -4.2
61 | A20C U55A G71A C96U | -3.43
62 | A21C C27G A64C C85A | ≤ -4.2
63 | A20C C85G A113U | -3.57
64 | A21C A52C C57A G88A G92A A97U | ≤ -4.2
65 | A21C A23G C51G U55A U101A | ≤ -4.2
66 | A21C G25C U53A G74A C87G | ≤ -4.2
67 | A20U G92U U104G | -1.82
68 | A20G U148C | -1.93
69 | A19G C93U | -1.99
70 | A19G C27U G50A | -4.19
71 | A19U C93U A97U G141C | -2.49
72 | A20C C85A G126C | 0.52

Row | Variant | polymerase ribozyme fitness (log ratio)
73 | A19G A89C C105G | -1.99
74 | A20U A47C U55A U56G C72U C87A G88C A115G | ≤ -4.2
75 | A20U U78A C95U | ≤ -4.2
76 | A19U A21U A39G C43A U45A A91G | ≤ -4.2
77 | A20C G88A | -3.56
78 | A19U U55A C76G C93A | ≤ -4.2
79 | A20G C63U C96A G143C | -3.2
80 | A20C A40C U56G C96G A121U | -1.15
81 | A19G G84A U146C | -0.526
82 | A19G A26U C36G A73U C87A G88C A97G | ≤ -4.2
83 | A20U G84U A98G | -4.1
84 | A19G C35U G58A C85A G143A | -3.66
85 | A19U A142C | -1.11
86 | A19U A21U A30U A40C U55A C96U G126A C132U G143U | ≤ -4.2
87 | A20U U55G C96U U134G U144G | -3.67
88 | A19U A23G | -3.44
89 | A19G A39C G92A C116A | ≤ -4.2
90 | A19G A52U C96U A122G | -2.62
91 | A20U A23U A37U C51U C69A C105U | ≤ -4.2
92 | A20C C38G G70A C87U C108U | ≤ -4.2
93 | A19U A52G U56G G80C G84U A98C A110U | ≤ -4.2
94 | A20U A22G A52U A73G C85U G124C | -3.91
95 | A20U G25C G50C C118U | ≤ -4.2
96 | A20C C149G | -2.96

Row | Variant | polymerase ribozyme fitness (log ratio)
97 | A19U A40G A110C | ≤ -4.2
98 | A20C A40U C95U | -0.74
99 | A19U C57G A121G A150G | -1.93
100 | A19U A49U G71A C93U U102G C103G | ≤ -4.2
101 | A19U C95U C99A U145A | -2.13
102 | A20U C93G A121U A142U | ≤ -4.2
103 | A20C G136C | -4.19
104 | A19G U77A C96U A113G | ≤ -4.2
105 | A19U A21C A120C | -1.83
106 | A20C A29C G92U C149G | ≤ -4.2
107 | A19G C54A | -1.26
108 | A20U U77G C96U C99U | ≤ -4.2
109 | A20G A26G G65A C69A C105A | ≤ -4.2
110 | A19U G25U C38G A52C C75U C118G C131A A142U | ≤ -4.2
111 | A19U C38G C43G G80C C87U C149G | ≤ -4.2
112 | A21C A52C C57U A64C A66C G71U A91U G100A C103U U127G | ≤ -4.2
113 | A19U C27U A47U G50U C79G C93G G141A U145G | ≤ -4.2
114 | A19G A91C | -4.15
115 | A21C C51U G59C G140A A142U | ≤ -4.2
116 | A20G C32U G84U C93G | -4.2
117 | A21C C36U C57A C95U A97G A98U C125U | -3.21
118 | A19U A23U U77C C87U A106U C108G C123G | -4.07
119 | A20U C51U C79A C93A A97U U148G | ≤ -4.2
120 | A20U G88C | -3.85

Row | Variant | polymerase ribozyme fitness (log ratio)
121 | A19U C96U A120G A121C | -0.837
122 | A19G C38U A40C C79A G86U C96G | ≤ -4.2
123 | A20U A52G | -2.02
124 | A19U C85U A107G | ≤ -4.2
125 | A20G U78G C93U A110U U135G A137G | ≤ -4.2
126 | A21C A41U C85U C95U | -1.34
127 | A19U A37U G67C C85A U109G U148C | ≤ -4.2
128 | A20G G94A C105G | -2.04
129 | A19U U53A G71C G84A C96U A97U C108G G140U | ≤ -4.2
130 | A21C C85U U102G C118U U144G U151A | ≤ -4.2
131 | A21C C27U C35U G68A C96A A147G | ≤ -4.2
132 | A19U G83A U90A G94U | ≤ -4.2
133 | A21C C85G C87U U145G | -3.2
134 | A19G U82C C116U C125A G141U | ≤ -4.2
135 | A20U A23C C72U G88C A91G C99U G140U | ≤ -4.2
136 | A19G C85A G86U C93U U148A | ≤ -4.2
137 | A21C C85G C114U | -3.13
138 | A19G C57U G65A U102A G126U | -3.89
139 | A21C G25C C36G C93G A115U U134A U146A | ≤ -4.2
140 | A19U A30U C36G A97U | ≤ -4.2
141 | A20C A26G U56A C63U G67U G80A C85U G86C C103G | ≤ -4.2
142 | A20G G48A C69A A98U A142G | -3.3
143 | A20U G67A | -3.89
144 | A19G C35U C75G C129A U135C U145G | ≤ -4.2

Row | Variant | polymerase ribozyme fitness (log ratio)
145 | A19U C96U C125G | -0.589
146 | A19U A28U G83C | ≤ -4.2
147 | A20C U55A | -0.798
148 | A19G C51U C95A A115U | -3.61
149 | A20U A24C A49C G71A C72A C93U C103G U109C | ≤ -4.2
150 | A20C G68C G83C A89U U102A G140U | ≤ -4.2
151 | A20C A41U G50A U90A C93U | ≤ -4.2
152 | A19U A20U C57G G58A G88U G92C C125A C131U U148C C149A | ≤ -4.2
153 | A19U A20U A24G G42C U55A C57A U78C G86U A119U | ≤ -4.2
154 | A19G U44A G58A G67A C87A A106G G141U | ≤ -4.2
155 | A19G G48A G62U A73G C96A A119G | ≤ -4.2
156 | A20C C38G | -1.37
157 | A19U | -0.43
158 | A20G C54U A107U A120G | -3.56
159 | A19G C27U G59U G94C | -2.46
160 | A20U U61A C75U G81U C99G U148G | ≤ -4.2
161 | A20G C93U C99A G124U | -2.78
162 | A20G A91G | -2.54
163 | A21C C87U A89C A98G G112U | ≤ -4.2
164 | A19U C79U G83A G88C | ≤ -4.2
165 | A20U U53G C72G C95G C108U C118A | ≤ -4.2
166 | A20U A37G A120C A142C | ≤ -4.2
167 | A19U A22G C27G A30U G88C C95U | ≤ -4.2
